{"source": "paper PMC12839305", "target": "RVFV glycoprotein Gn head domain (154–469 aa) (Rift Valley fever virus) (UniProt P21401)", "experiment": "BLI; […]; 300 s association, 300 s dissociation; […], global 1:1 model; Octet RED96"}
{"substance": "full-length LRP1 (low-density lipoprotein receptor-related protein 1), native, from porcine lung", "values": [{"measurement": "Kd", "value": 9.2, "unit": "nM"}]}
